Among the data in the supplement of paper PMC12042874 are amyloid nucleation score values, retold here.

± gives the uncertainty stated by the source.

This data set in a line: amyloid nucleation score (Sup35N fusion, yeast selection) (log enrichment); library NNK2; higher = more nucleation; inactive = no reads after selection. An outline of the steps:
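Libraries of peptides of 20 random codons fused to Sup35N were expressed in psi-negative yeast and induced 24 hours with 100 μM copper sulfate. Selection was 7 days at 30°C on medium lacking adenine and uracil, and plasmid inserts were Illumina-sequenced before and after selection. Nucleation score is the DiMSum log enrichment of output over input reads, centred on the mode score of non-aggregating sequences, and sequences with under 100 input reads were left out.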

As for VGKWVRGQTSLLLVAWSAIY, the amyloid nucleation score is 0.28 ± 0.61. Under FRILFGFRCNLRGSSQVLIG stands “inactive”; under IIAPSSEL, -0.479 ± 0.63. Under GSESLNV stands 0.887 ± 0.57. In the case of EIFIPCEWGIVIHQGHAVSQ it was 4.46 ± 0.076; in that of DHAYYDTSCGIRTPFVMIVR, “inactive”; in that of LVVVMWR, 2.82 ± 0.19. Turning to VYAIHGTRYCELGAPIDKLY, the amyloid nucleation score was 0.852 ± 0.29.

Substance CVLQNWYSTSTPKSWLRGNV showed an amyloid nucleation score of 0.678 ± 0.41. In the case of VQYMHNRMVLWFFSDPLKDR it was 2.58 ± 0.099. In the case of KAGTGVVSANK it was 0.644 ± 0.39. In the case of ISHMYCSFGSLVLFSGIRFR it was -0.774 ± 0.53; in that of MLDVVARNH, 1.52 ± 0.3; in that of GRYLVSKTCFFYLMGNEVN, -0.307 ± 0.56.

As for DRIQDQRIGYVVEFSIEKVS, the amyloid nucleation score was -0.742 ± 0.28. In the case of RVTFSLWFADFIQNNLLKK it was 0.158 ± 0.5.

HHRGMIMLHNINYLRSFNAT showed an amyloid nucleation score of -0.465 ± 0.44. Substance WPVCTSIYMVGWWSVHTYHG showed an amyloid nucleation score of 0.705 ± 0.8. CNFVRSYDCHQVKLSI returned an amyloid nucleation score of -1.18 ± 1.1. Substance KWSIRVGPQWV registered an amyloid nucleation score of 3.43 ± 0.11. Under FRYAVPMCTFFADYFMSDQS stands “inactive”.

LNTKTCVIPSTTCVTIPERE had an amyloid nucleation score of 0.242 ± 0.17. In the case of AAKDSAWFHAIWVKKVRREV it was 1.01 ± 0.68; in that of DMRLKGLTRVFTGDNRFSLL, -0.064 ± 0.54; in that of AGSGFRSATWYRASTWMAFG, 2.93 ± 0.13. Under DLSLESLRSNEVEAVNMFVF stands “inactive”; under RPTHEAF, 5.87 ± 0.089. As to LQVLSFSLWFMVRCMKLLPT, the amyloid nucleation score was -0.286 ± 0.65. In the case of VIEMRHDRFFTVYSVEITAG, the amyloid nucleation score turned out to be 0.623 ± 0.52. In the case of SETYTLIRARYIMV it was -1.24 ± 0.75; in that of VYRMPGVSWKYVS, 0.501 ± 0.8. Substance VVPFIKTRCNPV came in with an amyloid nucleation score of -0.829 ± 0.33. Under GIIDLIYCNAEEHSHWGDFA stands -1.17 ± 0.62; under YYIQHHSF, 3.37 ± 0.082. In the case of MGIMPQITLDLNLLYLGKVL it was 0.14 ± 0.35; in that of PGYVAWRIFFFGPVI, 0.007 ± 1.1; in that of FSIYYRGPRQVSTYRDLIPV, -0.429 ± 0.37. Under VVRPVTLRFCTKGGMYSSVG stands 0.407 ± 0.32; under IYLYPSYWCCFNRL, 9.605 ± 0.059. YYIMCFSSGCDPLPQHCGWE yielded an amyloid nucleation score of -0.821 ± 1.1. In the case of GDPDQVYSFR it was 0.034 ± 1.1; in that of YAFKRECWCHYHHHCVQMFW, 0.49 ± 0.33. Under GADGCCHNMDCGFLNINWTN stands 8.959 ± 0.049; under KFHHGFLGELPAPEYSSESA, 0.25 ± 0.42; under LGGGHKMDLFCYMISIWYYM, 2.77 ± 0.18. In the case of NNVSLPYMSSIVIIGLIRR it was 7.193 ± 0.057.

FMTNGFFVSLWFTCGDSVLS returned an amyloid nucleation score of 5.68 ± 0.078. In the case of FIKRAHVERFSLPKTPWSVD it was -1.3 ± 1; in that of LRVRGRFLNSWSASPRSSDY, 3.58 ± 0.053. Under GISSSHPRTNGHRQYLNFGV stands -0.627 ± 0.61; under SILLYKFK, 1.54 ± 0.12; under MGQTVSRPWQAGSLYGANPC, 0.926 ± 0.45. Under DCQMRDNASVNIIVRFQYVY stands 5.08 ± 0.082. In turn, NFNYFGWISQEIPPLLAGLS had an amyloid nucleation score of -0.509 ± 1.1. SDGQGHYVIQRTLWVTWSFR: the amyloid nucleation score is -0.707 ± 0.76. Consider NQVFSIALAQNRSRHFFLGG, for which the amyloid nucleation score result was “inactive”.

QHLLLCAAM had an amyloid nucleation score of 0.399 ± 0.74.

For the substance GCISVNCHSLLRTHAFRG, the amyloid nucleation score stood at 1.28 ± 0.1. Take ACFHGFPIYGCLLANAMCGR: the amyloid nucleation score turned out to be 1.33 ± 0.67. In the case of KSCVGYLSAMESSVRL it was 0.045 ± 0.79; in that of RATSVSILVQLGETLFCEYT, 0.56 ± 0.2. Under LGDVYMWIFKKLLWVNHWDV stands -0.033 ± 0.44; under LVDILLMMYWMWQ, 0.373 ± 0.45. In the case of FYRNLLTFFYGVSFN it was -0.807 ± 1.

The substance HCYSRPFESSSFMNSVSLKY returned an amyloid nucleation score of -0.149 ± 0.76. CIGYKLLLGELLAP gave an amyloid nucleation score of 0.137 ± 0.5. Under IRSMACDIPGV stands -0.255 ± 0.65; under MGSNAWVLNNACHGLFTSAS, 0.386 ± 0.35. LVCGHRPNVAAGTQGDCGRW came in with an amyloid nucleation score of 1.04 ± 0.32. In the case of GEIAPGWEQLWDNEWGSDWA it was -0.051 ± 0.39; in that of FCYQMSEVWIWCKFIFSI, -1 ± 1.1.

Take LVGLISRNKVVRTGIENNKD: the amyloid nucleation score was -0.059 ± 0.55. In the case of KVDQGMQSSLRKCPFHQIKP, the amyloid nucleation score is 1.62 ± 0.32.

On to HEHSDVRKKVGWMAFWR, for which the amyloid nucleation score is 4.42 ± 0.06. In the case of GCRHYYWMMCNLVTFMKRES it was 7.237 ± 0.028. In the case of LRDIYNFGDSHYFRNYSVTE it was -0.132 ± 0.31; in that of SSLHACA, 2.21 ± 0.29. Under YTYTQTR stands 0.25 ± 0.48; under LHWKWQMNCLWSEGSHCFNN, 0.116 ± 0.33. On to EPTFWPRW, for which the amyloid nucleation score came to 0.626 ± 0.35. Take AHPMEQCKIL: the amyloid nucleation score was 0.545 ± 0.41. In the case of PQSWIVHRTIVHGSLGSCFP it was -0.4 ± 0.3.

NHAVVCLDFNGGFPGQA yielded an amyloid nucleation score of -0.481 ± 0.53.

LSMDRESFINERWSSQRVMV: the amyloid nucleation score is -0.02 ± 0.5. In the case of KGNHRRVKTSIYNFFKVSNC it was 0.445 ± 0.29. As for HKGAARQPRPYMEAVIGPHP, the amyloid nucleation score came to 0.792 ± 0.27.

FNLLEVTRPPMRMMGMM displayed an amyloid nucleation score of 2.3 ± 0.076. In the case of IKISNLTTKVMSHFVSGVAK it was -0.982 ± 0.48; in that of GYDNTAWELTGGVD, -0.311 ± 0.3. AFICMFVIRFDWYNMS registered an amyloid nucleation score of -0.558 ± 1.

With LLTLFG, the amyloid nucleation score was -0.087 ± 0.56. In the case of LCGWHD it was 0.733 ± 0.47; in that of KICCIQVLLKYMGQWVQFR, 0.053 ± 1.1. Substance NSVRFSRLKRFSNCMFNHWR came in with an amyloid nucleation score of 0.284 ± 0.65. Turning to ETFVYYFNVSSLVT, the amyloid nucleation score was found to be 0.11 ± 0.38.

In the case of VSCCNLVVDLKRTILLFGGR, the amyloid nucleation score is 7.504 ± 0.052. Under TICSHKRKYNWMIGWRMSTF stands 0.142 ± 0.45. Under IATAKTRQGFPLMSTLPAIV stands 0.37 ± 0.5; under VDSTFSHSSSFWELYRPTHL, -1.41 ± 1.1. In the case of RLRFPSPFRTVNWSFIRFAR it was 5.03 ± 0.069; in that of SDPKLFCAIKAGNTQLGVES, 0.634 ± 0.54; in that of DFNSCRLTVHLRYTSVPCRY, 0.233 ± 0.74. FYAIGFLIGGLHFWDWHIWF came in with an amyloid nucleation score of -0.189 ± 0.64. Under CRVLGQRRGASTNVSVHIVE stands -0.097 ± 1.1; under NSGYIGLGLSF, -0.224 ± 0.65; under LRMYCRVTWSISYVSSSPVL, 2.83 ± 0.087.

Turning to MRHILCISSVGRFNFRCCFK, the amyloid nucleation score is -0.038 ± 1.

Take SLATSAWVVYLWFVVRDIVV: the amyloid nucleation score was 0.388 ± 0.33.

In turn, EDFYAYFLIRRCVACAIIFL yielded an amyloid nucleation score of 3.02 ± 0.15. Under ISFDLCIKRWQK stands 5.946 ± 0.054. In the case of WLPNRRNVPYAVESVCS it was 0.971 ± 0.33. In the case of IHAFLALVNCNDTSTKTEVK it was -0.435 ± 0.56; in that of EAKFGKLKGYKCTVTGECSC, -0.391 ± 0.36; in that of FEIWWLVGVVFWMVSGVNTV, -0.074 ± 0.22.

VLLRDNGLELFAP registered an amyloid nucleation score of 0.779 ± 0.3. Take RERMRY: the amyloid nucleation score is 1.64 ± 0.18. The substance YAPRCNPNRNLLNMT showed an amyloid nucleation score of 4.47 ± 0.058.

Regarding EWFNRSRYKCHRRHVLMAMV, the amyloid nucleation score was 0.343 ± 0.8. In the case of SLNNIRLLTHYLDFGVRNLA it was 3.04 ± 0.092; in that of LCHEQLCGFRMFCYSHGR, 3.58 ± 0.11; in that of YHITSSLWVDDIHVLLNMGP, 0.328 ± 0.42. For LFIRINWDFSNLWGTFGITV, the amyloid nucleation score came to 0.553 ± 0.2.

On to SLFYPLFLMLGVAYEGSFSW, for which the amyloid nucleation score was -1.1 ± 0.61. Under CKLMMGVFVLTVNTCGDVSS stands 5.33 ± 0.054; under CPSFMNSFDASRNIWIVPSG, 3.28 ± 0.058; under KRFIWCFRVTLFT, -0.633 ± 1.1. Under YTYSHAYPRWTMFIWWHDLE stands -0.378 ± 0.31; under FKCNIYYSFRYGSI, 7.18 ± 0.026; under FLRNPPYESTTQGGRPKGAH, 0.134 ± 0.51. In the case of VMKFMWKMMLNRERAPYHVL it was -0.784 ± 0.49; in that of MYIRYPFATPYWSFLLGKVT, -0.117 ± 0.35; in that of LAIVKGLVKSFLCYDFSGKV, “inactive”. For the substance LTACEQSWLKILLLMEMQTL, the amyloid nucleation score was -0.137 ± 0.54. In the case of LLARVYKTICCMNWGFRNE it was 2.06 ± 0.1; in that of TRPVNLDLIFISSG, 2.92 ± 0.098.

DFNVSLSCHEKLMMVSFRWR displayed an amyloid nucleation score of -0.373 ± 0.34. In the case of HAVWSVFCEFIVRQCYGLYF it was -1.37 ± 0.41; in that of MRCNYLAEYRFQRG, -0.669 ± 0.44.
